Measurements as given in paper PMC3515695 (Nature structural & molecular biology, 2012).

Target: the molecule itself
Assay: SAXS

B1: full-length Caenorhabditis elegans TDP2 (enzyme, UniProt Q9XWG3 1-362, looked up)
chain: MSNSDDEIQEIEAKRQKMSQEDSEVEIEILDEPEQGKLKNSSMSDEQKLHEFAIITATDEAFAQSILQDVDWDLKKALDVFYGSEAFAEARSAAVMGASSSMASSGAAVMTAEDLKGFEVSVMSWNIDGLDGRSLLTRMKAVAHIVKNVNPDILFLQEVVDRDLAPIDKLQSLYKIYYSNKGCQYYTAILVSKMFDVEKHDVIHFQNSGMYRTLQILEGSIGGLKVFLLNTHLESTREHRPQRCAQFGFCMDKVREIIAQNPGALVFFGGDLNLRDEEVSRVPDGVKDAWEAAGSDNKTKFTWDTFKNDNKQGFHGAKMRFDRLYWSGPLDKVKFTLEGRQRIRSCLCFPSDHWAINATFFA
stoichiometry N: 2
